This is an account of results in paper PMC8865373 (Biochemistry, 2021).

As a reminder, the Kd is the concentration at which binding is half-saturated. A low value points to higher affinity.

Assay [1] has as its target T1, TAZ2 domain (residues 1764–1855) of wild-type mouse CBP (mouse, UniProt P45481 1764-1855).
T1 sequence (looked up): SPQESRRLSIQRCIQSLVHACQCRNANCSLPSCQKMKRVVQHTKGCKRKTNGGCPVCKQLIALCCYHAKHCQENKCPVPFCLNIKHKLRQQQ
Briefly: fluorescence polarisation. (In fluorescence polarisation assays a small probe gives low polarisation when free and higher when bound to something large.)

The target of assay [2] is T1, TAZ2 domain (residues 1764–1855) of …. In words: NMR titration.
Assay [3] has the same target. Briefly: fluorescence polarisation. The source holds these as a separate data set.
Assay [4] shares this target. Briefly: NMR titration. The source holds these as a separate data set.

Where no end group is shown, it is not given here. [ ]: non-standard residue; d: D form. pS = N[C@@H](COP(=O)(O)O)C(=O)O

Regarding ETTDLYCYEQLNDSSEEEDE [E7 CR2 peptide (residues 18–37)], the Kd in assay [1] came to 4.6 ± 0.2 µM; in assay [2] it was 3.4 µM.

B1: E7(1–51) C24A/A50C labeled with Alexa fluor 594, unphosphorylated (domain or fragment)
chain: MHGDTPTLHEYMLDLQPETTDLYAYEQLNDSSEEEDEIDGPAGQAEPDRC(Alexa Fluor 594)H
Molecule B1 displayed a Kd in assay [3] of 0.079 µM. This counts as double-digit nanomolar.

Consider MHGDTPTLHEYMLDLQPE-NH2 [E7 CR1 peptide (residues 1–18)], for which the equilibrium dissociation constant (Kd) turned out to be 31 ± 2 µM in assay [1] and 69 µM in assay [2].

B2: doubly-phosphorylated HPV16 ppE7(1–51) (domain or fragment)
chain: MHGDTPTLHEYMLDLQPETTDLYCYEQLND[pS][pS]EEEDEIDGPAGQAEPDRAH
Regarding B2, the binding result in assay [4] is “binds”.

Turning to PETTDLYCYEQLND[pS][pS]EEEDEIDGPAGQAEPDRAH (domain or fragment) [doubly-phosphorylated HPV16 ppE7(17–51)], the binding result in assay [4] is reported as “binds”.

In the case of PETTDLYCYEQLNDSSEEEDEIDGPAGQAEPDRAH (domain or fragment) [HPV16 E7(17–51), unphosphorylated], binding in assay [1] was characterised by a dissociation constant (Kd) of 1.8 ± 0.1 µM.

B3: ppE7(1–51)(L15V) (domain or fragment)
chain: MHGDTPTLHEYMLDVQPETTDLYCYEQLND[pS][pS]EEEDEIDGPAGQAEPDRAH
As to B3, the binding result in assay [4] is on record as “binds”.

B4: HPV16 E7(1–51), unphosphorylated (domain or fragment)
chain: MHGDTPTLHEYMLDLQPETTDLYCYEQLNDSSEEEDEIDGPAGQAEPDRAH
In assay [1], B4 came in with a Kd of 0.1 ± 0.01 µM.
